Experimental data from US20060263381A1 (INSTITUT GUSTAVE ROUSSY, published 2006).
Like-named read-outs stand apart in the source and are kept apart here.

Key:
HLA-A*0201 molecule [1] = biological target: T1, HLA-A*0201 molecule (human); test: T2 cell HLA-A*0201 stabilisation, flow cytometry with BB7.2
T1 construct: MHC class I molecule on T2 cells, to which the test peptides are added from outside
Protocol: (§1) The cells are then analyzed by flow cytometry. […] The mean RA for each peptide is determined from at least three independent experiments. In all the experiments, 20& of the maximum fluorescence was obtained for 1 to 3 μM of the reference peptide.

HLA-A*0201 molecule [2] = biological target: T1, HLA-A*0201 molecule; test: T2 cells loaded with 100 µM peptide, Brefeldin A, flow cytometry with BB7.2 at 0-8 h
HLA-A*0201 molecule [3] = biological target: T1, HLA-A*0201 molecule; test: T2 cell HLA-A*0201 stabilisation, flow cytometry with BB7.2; remark: listed apart in the source
Protocol: as §1

B1: p911Y1V9 (YVWELMTFGV) (peptide)
peptide: YVWELMTFGV
notes: It is a 10-mer, although the label says V9
HLA-A*0201 molecule [1]
  RA (relative affinity): 2.03 ratio to reference peptide HIVpol 589

## YLGLSYDGLL (Variant of p174 with tyrosine at P1) [p174Y1 (YLGLSYDGLL)]
HLA-A*0201 molecule [2]
  DC50 (time for loss of 50% of the complexes): < 2 h
HLA-A*0201 molecule [3]
  RA (relative affinity): 13 ratio to reference peptide HIVpol 589

B2: p174 (CLGLSYDGLL) (peptide)
peptide: CLGLSYDGLL
notes: Native peptide of MAGE-A1, -A2, -A3, -A4, -A6, -A12; It is named by the position of its first residue in MAGE-A1
HLA-A*0201 molecule [2]
  DC50 (time for loss of 50% of the complexes): < 2 h
HLA-A*0201 molecule [3]
  RA (relative affinity): 41 ratio to reference peptide HIVpol 589

B3: p174Y1V10 (YLGLSYDGLV) (peptide)
peptide: YLGLSYDGLV
notes: Variant of p174 with tyrosine at P1 and valine at P10
HLA-A*0201 molecule [2]
  DC50 (time for loss of 50% of the complexes): < 2 h
HLA-A*0201 molecule [3]
  RA (relative affinity): 2.5 ratio to reference peptide HIVpol 589

B4: p248G9 (YLEYRQVPG) (peptide)
peptide: YLEYRQVPG
notes: Native peptide of MAGE-A2, -A3, -A4, -A6, -A10, -A12
HLA-A*0201 molecule [2]
  DC50 (time for loss of 50% of the complexes): < 2 h
HLA-A*0201 molecule [3]
  RA (relative affinity): > 27 ratio to reference peptide HIVpol 589

## YLEYRQVPD (Native peptide of MAGE-A1) [p248D9 (YLEYRQVPD)]
HLA-A*0201 molecule [2]
  DC50 (time for loss of 50% of the complexes): < 2 h
HLA-A*0201 molecule [3]
  RA (relative affinity): 22.5 ratio to reference peptide HIVpol 589

B5: p248V9 (YLEYRQVPV) (peptide)
peptide: YLEYRQVPV
notes: Variant of p248G9 and p248D9 with valine at P9
HLA-A*0201 molecule [2]
  DC50 (time for loss of 50% of the complexes): 4 h
HLA-A*0201 molecule [3]
  RA (relative affinity): 1.8 ratio to reference peptide HIVpol 589

## YLFLWGPRA (Variant of p262 with leucine at P2) [p262L2 (YLFLWGPRA)]
HLA-A*0201 molecule [2]
  DC50 (time for loss of 50% of the complexes): 6 h
HLA-A*0201 molecule [3]
  RA (relative affinity): 0.2 ratio to reference peptide HIVpol 589
